This passage reports binding result and Kd results from PMC9318713, “Exploring the Utility of ssDNA Aptamers Directed against Snake Venom Toxins as New Therapeutics for Snakebite Envenoming”.

In data set [1] the target is T1, ancrod (recombinant SVSP) (Calloselasma rhodostoma? (printed C. …, UniProt P26324 1-234)).
T1 sequence: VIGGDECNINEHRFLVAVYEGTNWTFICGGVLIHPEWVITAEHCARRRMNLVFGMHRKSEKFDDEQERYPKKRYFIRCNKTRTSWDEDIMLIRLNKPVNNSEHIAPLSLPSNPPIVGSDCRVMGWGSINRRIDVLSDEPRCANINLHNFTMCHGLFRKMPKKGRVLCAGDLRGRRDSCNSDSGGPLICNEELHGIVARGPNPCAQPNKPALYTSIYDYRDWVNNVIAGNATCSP
The data set is described as follows: fluorescence bead binding assay; 2 mM Mg2+; Kd only in figure, within 3.0-17.8 nM; Kd: 50 mM Tris-HCl pH 7.5, 150 mM NaCl, 2 mM MgCl2, RT, 1 h, toxin on Sepharose beads; ALISA: 100 ng toxin coated, aptamer in nuclease-free water, RT, 2 h, PBST. Particulars: protein: recombinant; label: 6-FAM.

For data set [2], the target named is T2, batroxobin (recombinant SVSP) (Bothrops atrox? (printed B. atrox), UniProt P04971 25-255). The data set is described as follows: fluorescence bead binding assay. The conditions noted are these: protein: recombinant; label: 6-FAM.
The target of data set [3] is T2, batroxobin (recombinant SVSP). The data set is described as follows: fluorescence bead binding assay; 2 mM Mg2+. Particulars: protein: recombinant; label: 6-FAM (Kd); HRP (ALISA).
Data set [4] has as its target T1, ancrod (recombinant SVSP). In words: fluorescence bead binding assay; 2 mM Mg2+; Kd: 50 mM Tris-HCl pH 7.5, 150 mM NaCl, 2 mM MgCl2, RT, 1 h, toxin on Sepharose beads; ALISA: 100 ng toxin coated, aptamer in nuclease-free water, RT, 2 h, PBST. The conditions noted are these: protein: recombinant; label: 6-FAM (Kd); HRP (ALISA).

T2 sequence (P04971 25-255): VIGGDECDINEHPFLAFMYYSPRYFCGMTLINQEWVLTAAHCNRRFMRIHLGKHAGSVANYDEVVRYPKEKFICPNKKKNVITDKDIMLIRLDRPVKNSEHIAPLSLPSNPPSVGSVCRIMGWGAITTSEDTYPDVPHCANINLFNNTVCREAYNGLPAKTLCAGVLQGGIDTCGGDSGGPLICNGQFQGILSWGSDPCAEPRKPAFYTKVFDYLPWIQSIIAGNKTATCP

On to TGGTCTAAGGACTGCTTAGGATTGCGATATGGTCCAGATG (ssDNA) [ancrod-11], for which, in data set [1], the binding result is given as “binds”.

Take AGGTCCTATTGTATACAGGGAGCCCTCGGTCTTGCTGTGA (ssDNA) [batroxobin-29]: the binding result in data set [2] was “binds”.

By Kd is commonly meant the equilibrium constant for the complex coming apart. With TGTCTGGTATGCAAAGGACTGCTGTACTGTTAGCTTTTGT (ssDNA) [batroxobin-26], the Kd in data set [3] is 4.7 nM.

In the case of TAGTAACAGGTCTGCTTAGGCTTGCGAGGAGTACTAGTAT (ssDNA) [batroxobin-5], the binding result in data set [2] was “binds”.

Take GGACCGACCCTTTAGCATTTATGACCCTTGTCATCGGGCT (ssDNA) [ancrod-55]: in data set [4], the Kd was 3 nM.

As to TAGCATGGGTGGTCAATTTAAGTACAGTGTCGTGCTCACT (ssDNA) [ancrod-7], the binding result in data set [1] is reported as “binds”.
